Assay results from US20250090677A1 (MULTITUDE THERAPEUTICS, published 2025).
Read-outs that look alike come from different tables or passages of the source.

How the values were obtained:
[1] = target: T1, CDH6 on the cell surface of OVCAR-3 cells (human ovarian cancer cells) (human, UniProt P55285 54-790); assay: flow cytometry (FACS) on OVCAR-3 cells, antibody titration, labelled secondary antibody, MFI
T1 construct: whole, on cells; also called CDH6-positive human ovarian cancer cell line OVCAR-3
T1 sequence (looked up): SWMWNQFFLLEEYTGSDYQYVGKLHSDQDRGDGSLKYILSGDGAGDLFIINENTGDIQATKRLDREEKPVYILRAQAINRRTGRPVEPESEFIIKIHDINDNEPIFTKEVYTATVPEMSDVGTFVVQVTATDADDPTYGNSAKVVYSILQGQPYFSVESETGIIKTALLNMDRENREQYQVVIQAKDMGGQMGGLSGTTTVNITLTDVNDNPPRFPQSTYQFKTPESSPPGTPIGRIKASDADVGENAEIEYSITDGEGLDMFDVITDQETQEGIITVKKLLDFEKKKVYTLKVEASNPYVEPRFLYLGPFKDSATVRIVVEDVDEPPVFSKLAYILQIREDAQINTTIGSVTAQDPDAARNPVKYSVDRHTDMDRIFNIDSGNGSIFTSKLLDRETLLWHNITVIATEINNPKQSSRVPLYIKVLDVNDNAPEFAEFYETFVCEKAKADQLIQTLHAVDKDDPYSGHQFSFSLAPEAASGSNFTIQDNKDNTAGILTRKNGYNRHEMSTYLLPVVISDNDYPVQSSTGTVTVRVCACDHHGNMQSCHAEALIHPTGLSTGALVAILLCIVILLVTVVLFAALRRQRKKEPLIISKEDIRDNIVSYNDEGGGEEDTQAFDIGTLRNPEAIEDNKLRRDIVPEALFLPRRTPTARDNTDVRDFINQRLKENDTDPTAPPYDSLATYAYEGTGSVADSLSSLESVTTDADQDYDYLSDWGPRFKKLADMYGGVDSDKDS

Human CDH6-ECD-His = target: T2, Human CDH6-ECD-His (human, UniProt P55285 54-615); assay: BLI (Octet), antibody on AHC sensor, antigen 3.13-100 nM, 1:1 model
T2 construct: extracellular domain; Bought protein; also called human CDH6-ECD-His recombinant protein; Human CDH6-EC6D-His; not shown: His tag
T2 sequence (looked up): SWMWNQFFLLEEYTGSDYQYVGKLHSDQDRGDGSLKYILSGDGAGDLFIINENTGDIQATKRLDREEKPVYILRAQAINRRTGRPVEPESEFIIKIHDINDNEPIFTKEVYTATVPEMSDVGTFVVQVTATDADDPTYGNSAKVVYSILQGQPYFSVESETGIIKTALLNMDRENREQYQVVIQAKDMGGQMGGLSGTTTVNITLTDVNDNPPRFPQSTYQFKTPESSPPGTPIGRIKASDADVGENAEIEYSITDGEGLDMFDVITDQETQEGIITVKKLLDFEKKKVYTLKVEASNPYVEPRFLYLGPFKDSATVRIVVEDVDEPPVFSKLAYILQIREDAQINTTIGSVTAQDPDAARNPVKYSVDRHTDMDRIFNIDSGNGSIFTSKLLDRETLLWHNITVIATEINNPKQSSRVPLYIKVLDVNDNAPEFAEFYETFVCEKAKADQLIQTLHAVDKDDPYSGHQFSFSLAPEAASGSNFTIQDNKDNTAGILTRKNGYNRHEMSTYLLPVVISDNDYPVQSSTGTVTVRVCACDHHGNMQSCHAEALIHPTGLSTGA
Method: (§1) Binding affinities of CL069707-H1L1 and Ch069707 were measured using the Octet® system based on Bio-Layer Interferometry (BLI) technique. Antibodies were loaded to AHC (Anti-hIgG Fc Capture) at 100 nM concentration. […] From the six different binding curves obtained from each antigen concentration, binding constants (KD) were calculated based on the 1:1 binding model. CL069707-H1L1 and Ch069707 binds to human CDH6-ECD-His antigen with similar affinity. CL069707-H1L1 binds to human CDH6-ECD-His and cyno monkey CDH6-ECD-His antigens with similar affinity.

cyno monkey CDH6-ECD-His = target: T3, cyno monkey CDH6-ECD-His (cyno monkey, UniProt A0A2K5TW62 54-615); assay: as above
T3 construct: extracellular domain; Bought protein; also called Cyno CDH6-ECD-His; not shown: His tag
T3 sequence: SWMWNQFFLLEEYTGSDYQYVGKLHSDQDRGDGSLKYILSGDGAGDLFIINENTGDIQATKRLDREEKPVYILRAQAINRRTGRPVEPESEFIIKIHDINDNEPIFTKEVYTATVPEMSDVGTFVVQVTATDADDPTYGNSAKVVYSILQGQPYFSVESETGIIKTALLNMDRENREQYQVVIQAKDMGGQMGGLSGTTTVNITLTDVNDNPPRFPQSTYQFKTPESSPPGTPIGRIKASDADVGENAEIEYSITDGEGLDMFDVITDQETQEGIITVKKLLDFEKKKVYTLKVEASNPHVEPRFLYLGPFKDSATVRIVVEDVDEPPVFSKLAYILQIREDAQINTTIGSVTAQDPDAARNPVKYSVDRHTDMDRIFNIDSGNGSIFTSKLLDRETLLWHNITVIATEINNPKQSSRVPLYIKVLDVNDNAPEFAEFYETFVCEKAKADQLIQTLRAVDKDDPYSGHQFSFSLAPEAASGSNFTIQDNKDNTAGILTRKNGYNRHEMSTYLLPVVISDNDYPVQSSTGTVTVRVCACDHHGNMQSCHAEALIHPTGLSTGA
Method: as §1

[2] = target: T1, CDH6 on the cell surface of OVCAR-3 …; assay: flow cytometry (FACS) on OVCAR-3 cells, antibody titration, labelled secondary antibody, MFI; remark: listed apart in the source
Method: The binding EC50 of the humanized antibodies on tumor cell were tested as follow. Human ovarian cancer cell line OVCAR-3(purchased from National Collection of Authenticated Cell Cultures) cell culture was maintained in vitro as independent monolayer cultures at 37° C. in an atmosphere of 5% CO₂. The cells were harvested using trypsin-EDTA partial digestion followed by centrifugation at 1000 rpm for 5 minutes. The cell was resuspended in cold PBS and serial dilution of Ch069707 and CL069707-H1L1, CL069707-H1L2, CL069707-H2L1 and CL069707-H2L2 antibodies were added. Ch069707 antibody was a chimeric antibody. The variable regions were the same as those of CL069707, and the constant region was the same as human IgG1 constant regions (SEQ ID NO: 70 and SEQ ID NO: 71). The cell solutions were mixed, incubated at 4° C. and washed with cold PBS prior to addition of secondary antibody conjugates (for detection purposes). After incubation at 4° C., the cells were washed with PBS, and then subjected to flow cytometry (FACS) analysis.

B1: CL069463-H2L2 (antibody, human IgG1, kappa)
heavy: not shown
light: DIQMTQSPSSLSASVGDRVTITCRASENIYYSLAWYQQKPGKAPKLLIYNANSLKDGVPSRFSGSGSGTDYTMTISSMQPEDFATYYCQQAYDVPPTFGGGTKVEIKRTVAAPSVFIFPPSDEQLKSGTASVVCLLNNFYPREAKVQWKVDNALQSGNSQESVTEQDSKDSTYSLSSTLTLSKADYEKHKVYACEVTHQGLSSPVTKSFNRGEC
notes: Humanized IgG1/kappa
**Q.** B1 was tested. Which “EC50 (read off the curve)” value [1] did it give?
**A.** ~4 nM

B2: CL069463-H2L3 (antibody, human IgG1, kappa)
heavy: not shown
light: DIQMTQSPSSLSASVGERVTITCRASENIYYSLAWYQQKPGKAPKLLIYNANSLKDGVPSRFSGSGSGTDYTMTISSMQPEDFATYYCQQAYDVPPTFGGGTKVEIKRTVAAPSVFIFPPSDEQLKSGTASVVCLLNNFYPREAKVQWKVDNALQSGNSQESVTEQDSKDSTYSLSSTLTLSKADYEKHKVYACEVTHQGLSSPVTKSFNRGEC
notes: Humanized IgG1/kappa
**Q.** With B2 as the binder, how does the “EC50 (read off the curve)” value [1] read?
**A.** ~3 nM

B3: CL069463-H1L1 (antibody, human IgG1, kappa, V domains shown)
VH: EVQLVESGGGLVQPSGSLKLSCAASGFTFNTYALTWVRQASGKGLEWVGRIKSKNKDYETYYADSVKDRFTISRDDSISTLYLQMNSLKTEDTALYYCVRQNWNYFDYWGQGTMLTVSS
VL: DIQMTQSPSSLSASVGQRVTITCRASENIYYSLAWYQQKPGKPPRLLIYNANSLKDGVPSRFSGSGSGTQYTMTITSMQPEDFATYYCQQAYDVPPTFGGGTKLEIKR
notes: Humanized IgG1/kappa
**Q.** How did the “EC50 (read off the curve)” value [1] turn out when B3 was run?
**A.** ~4 nM

B4: Ch069707 (antibody, human IgG1, kappa, V domains shown)
VH: EVHLVESGGGLVQPKGSLKLSCVASGFTFTTYAMNWVRQAPGKGLEWVARIRIKNNNYATYYADSVTDRFTISRDDSQSMLYLQMNNLKTEDTAMYYCVRPDYGNYGLAYWGQGTLVTVSA
VL: EIVLTQSPTTMAASPGEKITITCSASSSISSHYLHWYQQKPGFSPKLLIYRSFYLASGVPLRFTGSGSGTSYSLTIGTMEAEDVATYYCQQDIVPLTFGAGTKLELKR
notes: also called anti-CDH6 chimeric antibody Ch069707
**Q.** Which Kd (Human CDH6-ECD-His) does the source give for B4 here?
**A.** 2.28 nM

**Q.** And the Kd (cyno monkey CDH6-ECD-His)?
**A.** 2.19 nM

**Q.** What about the “EC50 (read off the curve)” value [2] of the same binder?
**A.** ~0.7 nM
